*1 amine or outer side, *2 acyl side, *3 side chain or, on linkers, in order; H or OH if unused. Bridges are numbered along the chain shown (N, C = ends). Primed or numbered codes have the meaning given here. Where no end group is shown, it is not given here. Side-chain parts run from the residue outwards. [ ]: non-standard residue; d: D form. The star is where a group is joined. dpeg″ = spacer —[CO(CH2)O(CH2)2O(CH2)NH]—, O=C(COCCOCN[*:1])[*:2]; dpeg = —[CO(CH2)O(CH2)2O(CH2)NH]— spacer, O=C(COCCOCN[*:1])[*:2]; C20 diacid = O=C(O)CCCCCCCCCCCCCCCCCCC(=O)*; γGlu = O=C(O)[C@H](CCC(=O)[*:2])N[*:1]; NMeE = CN[C@@H](CCC(=O)O)C(=O)O; Aib = CC(C)(N)C(=O)O
B1: Compound A13 (peptide)
peptide: YSHGTFTSDYSKYLDK([γGlu-γGlu-C20 diacid])KYAQEFV[Aib]WLEDEPSSGAPPPS-OH
modifications: N-terminus assumed
SMILES: CC(C)C[C@H](NC(=O)[C@H](Cc1ccc(O)cc1)NC(=O)[C@H](CCCCN)NC(=O)[C@H](CO)NC(=O)[C@H](Cc1ccc(O)cc1)NC(=O)[C@H](CC(=O)O)NC(=O)[C@H](CO)NC(=O)[C@@H](NC(=O)[C@H](Cc1ccccc1)NC(=O)[C@@H](NC(=O)CNC(=O)[C@H](Cc1c[nH]cn1)NC(=O)[C@H](CO)NC(=O)[C@@H](N)Cc1ccc(O)cc1)[C@@H](C)O)[C@@H](C)O)C(=O)N[C@@H](CC(=O)O)C(=O)N[C@@H](CCCCNC(=O)CC[C@H](NC(=O)CC[C@H](NC(=O)CCCCCCCCCCCCCCCCCCC(=O)O)C(=O)O)C(=O)O)C(=O)N[C@@H](CCCCN)C(=O)N[C@@H](Cc1ccc(O)cc1)C(=O)N[C@@H](C)C(=O)N[C@@H](CCC(N)=O)C(=O)N[C@@H](CCC(=O)O)C(=O)N[C@@H](Cc1ccccc1)C(=O)N[C@H](C(=O)NC(C)(C)C(=O)N[C@@H](Cc1c[nH]c2ccccc12)C(=O)N[C@@H](CC(C)C)C(=O)N[C@@H](CCC(=O)O)C(=O)N[C@@H](CC(=O)O)C(=O)N[C@@H](CCC(=O)O)C(=O)N1CCC[C@H]1C(=O)N[C@@H](CO)C(=O)N[C@@H](CO)C(=O)NCC(=O)N[C@@H](C)C(=O)N1CCC[C@H]1C(=O)N1CCC[C@H]1C(=O)N1CCC[C@H]1C(=O)N[C@@H](CO)C(=O)O)C(C)C
B2: Compound A14 (peptide)
peptide: YSHGTFTSDYSKYLD[Aib]KYAQK([γGlu-γGlu-C20 diacid])FV[Aib]WLEDEPSSGAPPPS-OH
modifications: N-terminus assumed
SMILES: CC(C)C[C@H](NC(=O)[C@H](Cc1ccc(O)cc1)NC(=O)[C@H](CCCCN)NC(=O)[C@H](CO)NC(=O)[C@H](Cc1ccc(O)cc1)NC(=O)[C@H](CC(=O)O)NC(=O)[C@H](CO)NC(=O)[C@@H](NC(=O)[C@H](Cc1ccccc1)NC(=O)[C@@H](NC(=O)CNC(=O)[C@H](Cc1c[nH]cn1)NC(=O)[C@H](CO)NC(=O)[C@@H](N)Cc1ccc(O)cc1)[C@@H](C)O)[C@@H](C)O)C(=O)N[C@@H](CC(=O)O)C(=O)NC(C)(C)C(=O)N[C@@H](CCCCN)C(=O)N[C@@H](Cc1ccc(O)cc1)C(=O)N[C@@H](C)C(=O)N[C@@H](CCC(N)=O)C(=O)N[C@@H](CCCCNC(=O)CC[C@H](NC(=O)CC[C@H](NC(=O)CCCCCCCCCCCCCCCCCCC(=O)O)C(=O)O)C(=O)O)C(=O)N[C@@H](Cc1ccccc1)C(=O)N[C@H](C(=O)NC(C)(C)C(=O)N[C@@H](Cc1c[nH]c2ccccc12)C(=O)N[C@@H](CC(C)C)C(=O)N[C@@H](CCC(=O)O)C(=O)N[C@@H](CC(=O)O)C(=O)N[C@@H](CCC(=O)O)C(=O)N1CCC[C@H]1C(=O)N[C@@H](CO)C(=O)N[C@@H](CO)C(=O)NCC(=O)N[C@@H](C)C(=O)N1CCC[C@H]1C(=O)N1CCC[C@H]1C(=O)N1CCC[C@H]1C(=O)N[C@@H](CO)C(=O)O)C(C)C
B3: Compound A29 (peptide)
peptide: YSHGTFTSDYSKYLD[Aib]KYAQK([γGlu-γGlu-dpeg″-C20 diacid])FVKWLEEEPSSGAPPPS-OH
modifications: lactam 24-28; N-terminus assumed
SMILES: CC(C)C[C@@H]1NC(=O)[C@H](Cc2c[nH]c3ccccc23)NC(=O)[C@@H](NC(=O)[C@@H](NC(=O)[C@H](Cc2ccccc2)NC(=O)[C@H](CCCCNC(=O)CC[C@H](NC(=O)CC[C@H](NC(=O)COCCOCNC(=O)CCCCCCCCCCCCCCCCCCC(=O)O)C(=O)O)C(=O)O)NC(=O)[C@H](CCC(N)=O)NC(=O)[C@H](C)NC(=O)[C@H](Cc2ccc(O)cc2)NC(=O)[C@H](CCCCN)NC(=O)C(C)(C)NC(=O)[C@H](CC(=O)O)NC(=O)[C@H](CC(C)C)NC(=O)[C@H](Cc2ccc(O)cc2)NC(=O)[C@H](CCCCN)NC(=O)[C@H](CO)NC(=O)[C@H](Cc2ccc(O)cc2)NC(=O)[C@H](CC(=O)O)NC(=O)[C@H](CO)NC(=O)[C@@H](NC(=O)[C@H](Cc2ccccc2)NC(=O)[C@@H](NC(=O)CNC(=O)[C@H](Cc2c[nH]cn2)NC(=O)[C@H](CO)NC(=O)[C@@H](N)Cc2ccc(O)cc2)[C@@H](C)O)[C@@H](C)O)C(C)C)CCCCNC(=O)CC[C@@H](C(=O)N[C@@H](CCC(=O)O)C(=O)N2CCC[C@H]2C(=O)N[C@@H](CO)C(=O)N[C@@H](CO)C(=O)NCC(=O)N[C@@H](C)C(=O)N2CCC[C@H]2C(=O)N2CCC[C@H]2C(=O)N2CCC[C@H]2C(=O)N[C@@H](CO)C(=O)O)NC(=O)[C@H](CCC(=O)O)NC1=O

Key:
[1] = molecular target: human GLP-1 receptor (GLP-1R) (human, UniProt P43220 24-463); test: cell-based or functional assay
Sequence of human GLP-1 receptor (GLP-1R) (P43220 24-463): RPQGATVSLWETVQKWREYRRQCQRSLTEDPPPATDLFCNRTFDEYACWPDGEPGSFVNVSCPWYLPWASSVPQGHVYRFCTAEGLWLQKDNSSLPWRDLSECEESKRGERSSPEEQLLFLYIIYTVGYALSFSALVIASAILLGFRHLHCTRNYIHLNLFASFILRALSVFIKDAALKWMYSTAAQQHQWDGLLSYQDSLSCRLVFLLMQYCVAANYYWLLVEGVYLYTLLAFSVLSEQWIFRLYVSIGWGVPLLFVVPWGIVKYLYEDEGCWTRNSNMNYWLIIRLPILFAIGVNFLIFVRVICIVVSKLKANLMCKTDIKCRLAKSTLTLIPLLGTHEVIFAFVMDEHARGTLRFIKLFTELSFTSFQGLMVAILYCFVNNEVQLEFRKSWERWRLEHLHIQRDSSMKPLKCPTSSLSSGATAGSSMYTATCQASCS

[2] = molecular target: human Glucagon receptor (GCGR) (human, UniProt P47871 26-477); test: cell-based or functional assay

Row | Binder | pEC50, cAMP accumulation [1] | pEC50, cAMP accumulation [2]
1 | YSHGTFTSDYSKYLDK([γGlu-γGlu-dpeg-C20 diacid])KYAQEFV[Aib]WLEKEPSSGAPPPS-OH [Compound A20] | < 9 pEC50 (-log M) | 12.1 pEC50 (-log M)
2 | B1 | < 9 pEC50 (-log M) | 12 pEC50 (-log M)
3 | YSHGTFTSDYSKYLDK([γGlu-γGlu-dpeg″-C20 diacid])KYAEKFVKWLEDEPSSGAPPPS-OH (lactam 20-24) [Compound A21] | < 9 pEC50 (-log M) | 12.1 pEC50 (-log M)
4 | YSHGTFTSDYSKYLDK([γGlu-γGlu-dpeg-C20 diacid])KYAQEFV[Aib]WLEEEPSSGAPPPS-OH [Compound A15] | < 9 pEC50 (-log M) | 12.1 pEC50 (-log M)
5 | YSHGTFTSDYSKYLDK([γGlu-γGlu-dpeg-C20 diacid])KYAQEFV[Aib]WLEQEPSSGAPPPS-OH [Compound A17] | < 9 pEC50 (-log M) | 12.1 pEC50 (-log M)
6 | YSHGTFTSDYSKYLDK([γGlu-γGlu-dpeg″-C20 diacid])KYAKEFVEWLEDEPSSGAPPPS-OH (lactam 20-24) [Compound A11] | < 9 pEC50 (-log M) | 11.7 pEC50 (-log M)
7 | YSHGTFTSDYSKYLDK([γGlu-γGlu-dpeg-C20 diacid])KYAEEFV[Aib]WLESEPSSGAPPPS-OH [Compound A23] | < 9 pEC50 (-log M) | 11.5 pEC50 (-log M)
8 | YSHGTFTSDYSKYLD[Aib]KK([γGlu-γGlu-dpeg-C20 diacid])AQEFV[Aib]WLEDEPSSGAPPPS-OH [Compound A4] | – | 11.7 pEC50 (-log M)
9 | YSHGTFTSDYSKYLDK([γGlu-γGlu-dpeg-C20 diacid])KYAQEFV[Aib]WLESEPSSGAPPPS-OH [Compound A19] | < 9 pEC50 (-log M) | 12.1 pEC50 (-log M)
10 | B2 | < 9 pEC50 (-log M) | 11.2 pEC50 (-log M)
11 | YSHGTFTSDYSKYLDK([γGlu-γGlu-dpeg″-C20 diacid])KYAEEFVKWLEDEPSSGAPPPS-OH (lactam 20-24) [Compound A12] | < 9 pEC50 (-log M) | 11.8 pEC50 (-log M)
12 | YSHGTFTSDYSKYLDK([γGlu-γGlu-dpeg-C20 diacid])KYAQEF[Aib]SWLEDEPSSGAPPPS-OH [Compound A10] | < 9 pEC50 (-log M) | 10.4 pEC50 (-log M)
13 | YSHGTFTSDYSKYLDK([γGlu-γGlu-dpeg-C20 diacid])KYAQEF[Aib]EWLEDEPSSGAPPPS-OH [Compound A8] | < 9 pEC50 (-log M) | 9.9 pEC50 (-log M)
14 | YSHGTFTSDYSKYLDK([γGlu-γGlu-dpeg-C20 diacid])KYAQEF[Aib]KWLEDEPSSGAPPPS-OH [Compound A9] | < 9 pEC50 (-log M) | 10.6 pEC50 (-log M)
15 | B3 | < 9 pEC50 (-log M) | –
16 | YSHGTFTSDYSKYLD[Aib]K([γGlu-γGlu-dpeg-C20 diacid])YAQEFV[Aib]WLEDEPSSGAPPPS-OH [Compound A3] | – | 12.5 pEC50 (-log M)
17 | YSHGTFTSDYSKYLDK([γGlu-γGlu-dpeg-C20 diacid])KYASEFV[Aib]WLESEPSSGAPPPS-OH [Compound A24] | < 9 pEC50 (-log M) | 12.5 pEC50 (-log M)
18 | YSHGTFTSDYSKYLDK([γGlu-γGlu-dpeg-C20 diacid])KYAQEFV[Aib]WLENEPSSGAPPPS-OH [Compound A16] | < 9 pEC50 (-log M) | 12.2 pEC50 (-log M)
19 | YSHGTFTSDYSKYLDK([γGlu-γGlu-dpeg-C20 diacid])KYAQEFV[Aib]WLE[NMeE]EPSSGAPPPS-OH [Compound A18] | < 9 pEC50 (-log M) | 10.4 pEC50 (-log M)
20 | YSHGTFTSDYSKYLDK([γGlu-γGlu-dpeg-C20 diacid])KYAQEFV[Aib]WLEDEPSSGAPPPS-OH [Compound A2] | – | 12.5 pEC50 (-log M)
21 | YSHGTFTSDYSKYLDK([γGlu-γGlu-dpeg″-C20 diacid])KYAEKFVKWLEEEPSSGAPPPS-OH (lactam 20-24) [Compound A25] | < 9 pEC50 (-log M) | 11.9 pEC50 (-log M)
22 | YSHGTFTSDYSKYLDK([γGlu-γGlu-dpeg-C20 diacid])KYAKEFV[Aib]WLESEPSSGAPPPS-OH [Compound A22] | < 9 pEC50 (-log M) | 11.7 pEC50 (-log M)
23 | YSHGTFTSDYSKYLD[Aib]KYAK([γGlu-γGlu-dpeg-C20 diacid])EFV[Aib]WLEDEPSSGAPPPS-OH [Compound A5] | – | 11.6 pEC50 (-log M)
24 | YSHGTFTSDYSKYLK([γGlu-γGlu-dpeg-C20 diacid])[Aib]KYAQEFV[Aib]WLEDEPSSGAPPPS-OH [Compound A1] | – | 11.5 pEC50 (-log M)
